Where only a bound is given, the exact number is not on record here.

Assay [1] deals with BG505 SOSIP.664 Env trimer (UniProt Q2N0S6). The assay can be described thus: ELISA. To be noted: parent: 1. For orientation: ELISA stands for enzyme-linked immunosorbent assay.
For assay [2], the target named is BG505 SOSIP.664 Env trimer (HIV-1 (BG505)) (UniProt Q2N0S6).
For assay [3] the target is unchanged. The experiment in a line: ELISA; direct ELISA: plates coated with soluble BG505 SOSIP trimer (0.2 or 2 ng/μl) in PBS pH 7.4; serially diluted Fab mutants from cell culture supernatant, room temperature 1 hour; goat anti-human lambda HRP; compared with wild-type Fab on the same plate.

In the case of Fab NC-Cow1 D:D5A, the ratio to parent in assay [1] came out at 1.9. The same measure, in the same setting: in the case of Fab NC-Cow1 D:D26A it was 0.8; in that of Fab NC-Cow1 D:E1A, 1.2. On the same count and under the same terms, in the case of Fab NC-Cow1 D:G29A it was 64.2.

On to Fab NC-Cow1 D:H42A, for which the ratio to parent in assay [1] stood at 1. On the same count and under the same terms, in the case of Fab NC-Cow1 D:M24A it was 73.8; in that of Fab NC-Cow1 D:Q14A, 0.9; in that of Fab NC-Cow1 D:Q15A, 1.4.

Take Fab NC-Cow1 D:Q34A: in assay [1], the ratio to parent turned out to be 1.3. The same measure, in the same setting: in the case of Fab NC-Cow1 D:R43A it was 0.8. Still for that read-out and setting: in the case of Fab NC-Cow1 D:S19A it was 1; in that of Fab NC-Cow1 D:T7A, 1.3; in that of Fab NC-Cow1 D:Y40A, 1. Still for that read-out and setting: in the case of Fab NC-Cow1 H:N100A it was 1.6. In turn, NC-Cow1 Fab ArgD11 alanine mutant gave a neutralization on BG505 pseudovirus; fold reduction of potency against wild-type Fab in assay [2] of more than 9 fold. Besides, the fold reduction of binding in ELISA against wild-type Fab in assay [3] was more than 9 fold. In assay [2], NC-Cow1 Fab ArgD27 alanine mutant registered a neutralization on BG505 pseudovirus; fold reduction of potency against wild-type Fab of more than 9 fold. This substance registered a fold reduction of binding in ELISA against wild-type Fab in assay [3] of more than 9 fold.

Substance NC-Cow1 Fab ArgD33 alanine mutant had a neutralization on BG505 pseudovirus; fold reduction of potency against wild-type Fab in assay [2] of more than 9 fold. The same substance yielded a fold reduction of binding in ELISA against wild-type Fab in assay [3] of more than 9 fold. As for NC-Cow1 Fab ArgD43 alanine mutant, in assay [2], the neutralization on BG505 pseudovirus; fold reduction of potency against wild-type Fab is more than 3 fold.

NC-Cow1 Fab AsnH100 alanine mutant gave a neutralization on BG505 pseudovirus; fold reduction of potency against wild-type Fab in assay [2] of more than 3 fold. NC-Cow1 Fab GluD1 alanine mutant: in assay [2], the neutralization on BG505 pseudovirus; fold reduction of potency against wild-type Fab is more than 3 fold. NC-Cow1 Fab LysH100b alanine mutant returned a neutralization on BG505 pseudovirus; fold reduction of potency against wild-type Fab in assay [2] of more than 3 fold.

Consider NC-Cow1 Fab TyrD6 alanine mutant, for which, in assay [2], the neutralization on BG505 pseudovirus; fold reduction of potency against wild-type Fab was more than 9 fold. In assay [3], this substance had a fold reduction of binding in ELISA against wild-type Fab of more than 9 fold. In the case of NC-Cow1 Fab TyrD31 alanine mutant, the neutralization on BG505 pseudovirus; fold reduction of potency against wild-type Fab in assay [2] is more than 9 fold. The same substance displayed a fold reduction of binding in ELISA against wild-type Fab in assay [3] of more than 9 fold. In assay [2], NC-Cow1 Fab TyrD40 alanine mutant came in with a neutralization on BG505 pseudovirus; fold reduction of potency against wild-type Fab of more than 3 fold.
